Our source for the Kd values is publication PMC11630572, “Discovery of Nanosota-9 as anti-Omicron nanobody therapeutic candidate” (PLOS Pathogens, 2024).

Holding throughout (assay): SPR; Biacore S200; spike ectodomain immobilized on CM5 chip by chemical crosslinking; Nanosota-9-His injected at 8, 16, 32, 64, 128 nM; running buffer 10 mM HEPES, 150 mM NaCl, 0.05% Tween 20
Holding throughout (conditions): both partners purified

The target in assay [1] is T1, recombinant spike ectodomain of SARS-CoV-2 Omicron subvariant XBB.1.5 (SARS-CoV-2 Omicron XBB.1.5, strain).
T1 construct: The same GISAID id is printed for XBB.1.5 and JN.1; also called XBB.1.5 spike ectodomain; XBB.1.5 spike; not shown: His tag, C-terminal, kept

For assay [2], the target named is T2, recombinant spike ectodomain of SARS-CoV-2 Omicron subvariant JN.1 (SARS-CoV-2 Omicron JN.1, strain).
T2 construct: The same GISAID id is printed for XBB.1.5 and JN.1; also called JN.1 spike ectodomain; JN.1 spike; not shown: His tag, C-terminal, kept

Assay [3] has as its target T3, recombinant spike ectodomain of SARS-CoV-2 Omicron subvariant BA.5 (SARS-CoV-2 Omicron BA.5, strain).
T3 construct: also called BA.5 spike ectodomain; BA.5 spike; not shown: His tag, C-terminal, kept

B1: His-tagged Nanosota-9 (Nanosota-9-His) (VHH)
VHH: QVQLQESGGGLVQPGGSLRLSCTASGIALHTHATGWFRQAPGKEREGVSCISSGDGTTYYEDSVEGRFTISRDNAKNTVYLQMNSLKLEDTAVYYCAADPGAVCHSGSYYYTDDDFYYRGQGTQVTVSS
notes: Nanosota-9 nanobody from an alpaca immunized with the BA.5 spike ectodomain; also called monomeric Nanosota-9; not shown: His tag, C-terminal, kept
Take B1: the dissociation constant Kd in assay [1] stood at 60 pM; in assay [2] it was 29400 pM; in assay [3], 78 pM.
